In the Immune Epitope Database (IEDB) one finds Kd data, which are given here for 37 sequences.

Among the targets are HLA-A*11:01; HLA-A*31:01; HLA-A*03:01; HLA-A*68:01; HLA-A*33:01.
Assay in all cases: IEDB peptide-MHC binding, purified MHC/competitive/radioactivity; filed as Kd, often an IC50 or EC50 that approximates it; ≥ and ≤ were set here for values at or beyond the usual limits of such assays
Where [1] appears, read: source organism: Vaccinia virus WR.
[2] abbreviates: source organism: SARS coronavirus Tor2.
The mark [3] stands for this setting: source organism: Mammarenavirus whitewaterense.

Where only a bound is given, the exact number is not on record here.

The Kd is the concentration at which binding is half-saturated. On to GVSYEVFDDY, for which the Kd is 504 nM with HLA-A*11:01 (setting [1]); no less than 70000 nM with HLA-A*31:01 (setting [1]); no less than 70100 nM with HLA-A*03:01 (setting [1]); no less than 70200 nM in the assay with HLA-A*68:01 (setting [1]); no less than 70000 nM in the assay with HLA-A*33:01 (setting [1]).
In the case of AVMYMGTLSY, the Kd stood at 7.78 nM in the assay with HLA-A*11:01 (setting [2]); 3200 nM in the assay with HLA-A*31:01 (setting [2]); 7.67 nM with HLA-A*03:01 (setting [2]); 2580 nM with HLA-A*68:01 (setting [2]); 10800 nM in the assay with HLA-A*33:01 (setting [2]).
Turning to ITTLLNETAK, the Kd is 12.4 nM with HLA-A*11:01 (setting [1]); 10700 nM in the assay with HLA-A*31:01 (setting [1]); 10.9 nM with HLA-A*03:01 (setting [1]); 11.4 nM with HLA-A*68:01 (setting [1]); no less than 20800 nM in the assay with HLA-A*33:01 (setting [1]).
In the case of IIKHIYEQY, the Kd was 4140 nM in the assay with HLA-A*11:01 (setting [1]); 2660 nM in the assay with HLA-A*31:01 (setting [1]); 1850 nM with HLA-A*03:01 (setting [1]); 2180 nM with HLA-A*68:01 (setting [1]); no less than 41600 nM with HLA-A*33:01 (setting [1]).
With EINEWLSSK, the Kd with HLA-A*11:01 (setting [1]) came out at 170 nM; with HLA-A*31:01 (setting [1]) it was 7100 nM; with HLA-A*03:01 (setting [1]), 201 nM; in the assay with HLA-A*68:01 (setting [1]), 3.76 nM; with HLA-A*33:01 (setting [1]), 18.6 nM.
With TQYNRYLALY, the Kd with HLA-A*11:01 (setting [2]) came to 1570 nM; with HLA-A*31:01 (setting [2]) it was 283 nM; with HLA-A*03:01 (setting [2]) it was 266 nM; with HLA-A*68:01 (setting [2]), 99.3 nM; in the assay with HLA-A*33:01 (setting [2]), 1610 nM.
As to SVSPKLFIR, the Kd in the assay with HLA-A*11:01 (setting [2]) was found to be 755 nM; with HLA-A*31:01 (setting [2]) it was 116 nM; with HLA-A*03:01 (setting [2]) it was 7450 nM; with HLA-A*68:01 (setting [2]) it was 1420 nM; in the assay with HLA-A*33:01 (setting [2]), 12500 nM.
Consider KAFKNNLSR, for which the Kd in the assay with HLA-A*11:01 (setting [1]) was 152 nM; with HLA-A*31:01 (setting [1]), 25.4 nM; with HLA-A*03:01 (setting [1]) it was 301 nM; with HLA-A*68:01 (setting [1]), 171 nM; with HLA-A*33:01 (setting [1]) it was 4140 nM.
Turning to KCFANNQDER, the Kd is no less than 60300 nM in the assay with HLA-A*11:01 (setting [3]); 6690 nM in the assay with HLA-A*31:01 (setting [3]); no less than 70000 nM with HLA-A*03:01 (setting [3]); 6890 nM with HLA-A*68:01 (setting [3]); no less than 70000 nM with HLA-A*33:01 (setting [3]).
With MSAPPAEYK, the Kd is 0.948 nM with HLA-A*11:01 (setting [2]); 37.8 nM with HLA-A*31:01 (setting [2]); 4.14 nM with HLA-A*03:01 (setting [2]); 2.36 nM with HLA-A*68:01 (setting [2]); 1860 nM with HLA-A*33:01 (setting [2]).
ISIYSRPKIK: the Kd with HLA-A*11:01 (setting [1]) stood at 1670 nM; with HLA-A*31:01 (setting [1]) it was 5070 nM; with HLA-A*03:01 (setting [1]), 143 nM; with HLA-A*68:01 (setting [1]), 1730 nM; in the assay with HLA-A*33:01 (setting [1]), 8830 nM.
Consider DIVNEHDIKY, for which the Kd with HLA-A*11:01 (setting [1]) was 12600 nM; in the assay with HLA-A*31:01 (setting [1]) it was no less than 37200 nM; with HLA-A*03:01 (setting [1]) it was 7030 nM; with HLA-A*68:01 (setting [1]) it was 4610 nM; with HLA-A*33:01 (setting [1]) it was no less than 46100 nM.
As to SSIVRQLFK, the Kd with HLA-A*11:01 (setting [2]) is 73.2 nM; in the assay with HLA-A*31:01 (setting [2]), 2000 nM; with HLA-A*03:01 (setting [2]) it was 58.8 nM; with HLA-A*68:01 (setting [2]), 392 nM; with HLA-A*33:01 (setting [2]), no less than 77700 nM.
Take STCMMCYKR: the Kd in the assay with HLA-A*11:01 (setting [2]) worked out at 9.05 nM; with HLA-A*31:01 (setting [2]), 5.01 nM; with HLA-A*03:01 (setting [2]), 2250 nM; with HLA-A*68:01 (setting [2]), 17.8 nM; with HLA-A*33:01 (setting [2]) it was 24.5 nM.
Take SVDIETAIR: the Kd with HLA-A*11:01 (setting [1]) was 53 nM; in the assay with HLA-A*31:01 (setting [1]), 1800 nM; in the assay with HLA-A*03:01 (setting [1]), no less than 78000 nM; in the assay with HLA-A*68:01 (setting [1]) it was 187 nM; with HLA-A*33:01 (setting [1]) it was 17500 nM.
On the same counts, the results for FIKPVSDLY are 832 nM, 634 nM, 647 nM, 252 nM and 501 nM.
On to LQFTSLEIPR, for which the Kd is 850 nM with HLA-A*11:01 (setting [2]); 30.5 nM in the assay with HLA-A*31:01 (setting [2]); 804 nM with HLA-A*03:01 (setting [2]); 402 nM with HLA-A*68:01 (setting [2]); 1210 nM in the assay with HLA-A*33:01 (setting [2]).
Take CICYGSYSLY: the Kd in the assay with HLA-A*11:01 (setting [1]) was 341 nM; with HLA-A*31:01 (setting [1]), 4390 nM; with HLA-A*03:01 (setting [1]), 0.434 nM; with HLA-A*68:01 (setting [1]) it was 1580 nM; in the assay with HLA-A*33:01 (setting [1]) it was 2040 nM.
On the same counts, the results for IIVAGFSGK are 25.4 nM, 689 nM, 9.1 nM, 1440 nM and 805 nM.
As for AAYFVGYLK, the Kd with HLA-A*11:01 (setting [2]) was found to be 3.19 nM; in the assay with HLA-A*31:01 (setting [2]), 178 nM; with HLA-A*03:01 (setting [2]), 3.9 nM; with HLA-A*68:01 (setting [2]) it was 3.19 nM; in the assay with HLA-A*33:01 (setting [2]), 5550 nM.
Consider VSSLVKNVNK, for which the Kd with HLA-A*11:01 (setting [1]) was 40 nM; in the assay with HLA-A*31:01 (setting [1]), 1180 nM; in the assay with HLA-A*03:01 (setting [1]), 172 nM; with HLA-A*68:01 (setting [1]) it was 3360 nM; with HLA-A*33:01 (setting [1]), no less than 50000 nM.
On the same counts, the results for IMLPESDLDK are 393 nM, 489 nM, 609 nM, 1670 nM and no less than 70000 nM.
With NIRLTDTEYR, the Kd with HLA-A*11:01 (setting [1]) is 17500 nM; with HLA-A*31:01 (setting [1]), 59 nM; in the assay with HLA-A*03:01 (setting [1]), no less than 70100 nM; with HLA-A*68:01 (setting [1]), 1.39 nM; in the assay with HLA-A*33:01 (setting [1]), 157 nM.
In the case of STRHPSKLR, the Kd amounted to 3210 nM in the assay with HLA-A*11:01 (setting [2]); 9.74 nM with HLA-A*31:01 (setting [2]); 440 nM in the assay with HLA-A*03:01 (setting [2]); 101 nM with HLA-A*68:01 (setting [2]); 246 nM in the assay with HLA-A*33:01 (setting [2]).
For the sequence NAVYQCRKLR, the Kd is 17700 nM with HLA-A*11:01 (setting [1]); 348 nM with HLA-A*31:01 (setting [1]); 7270 nM in the assay with HLA-A*03:01 (setting [1]); 332 nM with HLA-A*68:01 (setting [1]); 6350 nM in the assay with HLA-A*33:01 (setting [1]).
With LFKNVRLLK, the Kd with HLA-A*11:01 (setting [1]) is 885 nM; in the assay with HLA-A*31:01 (setting [1]), 185 nM; with HLA-A*03:01 (setting [1]) it was 233 nM; with HLA-A*68:01 (setting [1]), 2090 nM; with HLA-A*33:01 (setting [1]), 1010 nM.
AISDYDYYR: the Kd in the assay with HLA-A*11:01 (setting [2]) came out at 65 nM; with HLA-A*31:01 (setting [2]) it was 26 nM; in the assay with HLA-A*03:01 (setting [2]) it was 86.5 nM; with HLA-A*68:01 (setting [2]), 118 nM; with HLA-A*33:01 (setting [2]), 490 nM.
With FSAGAGVLDK, the Kd with HLA-A*11:01 (setting [1]) stood at 225 nM; with HLA-A*31:01 (setting [1]), 575 nM; with HLA-A*03:01 (setting [1]) it was 452 nM; in the assay with HLA-A*68:01 (setting [1]), 15 nM; with HLA-A*33:01 (setting [1]), 350 nM.
SVFKGFSDK: the Kd with HLA-A*11:01 (setting [1]) worked out at 0.852 nM; with HLA-A*31:01 (setting [1]) it was 764 nM; with HLA-A*03:01 (setting [1]), 4.28 nM; with HLA-A*68:01 (setting [1]), 5.49 nM; with HLA-A*33:01 (setting [1]), 13500 nM.
On the same counts, the results for SIKIKQDVR are 5370 nM, 313 nM, 10800 nM, 316 nM and 4450 nM.
ELESLSKRER: the Kd was 4230 nM with HLA-A*11:01 (setting [1]); 3450 nM in the assay with HLA-A*31:01 (setting [1]); no less than 70100 nM in the assay with HLA-A*03:01 (setting [1]); 388 nM with HLA-A*68:01 (setting [1]); 12600 nM with HLA-A*33:01 (setting [1]).
Consider TVVQRCASNK, for which the Kd turned out to be 103 nM in the assay with HLA-A*11:01 (setting [2]); 224 nM with HLA-A*31:01 (setting [2]); 140 nM in the assay with HLA-A*03:01 (setting [2]); 122 nM with HLA-A*68:01 (setting [2]); 7490 nM with HLA-A*33:01 (setting [2]).
On to FFVFIHMVR, for which the Kd in the assay with HLA-A*11:01 (setting [1]) is 3780 nM; with HLA-A*31:01 (setting [1]), 1.08 nM; in the assay with HLA-A*03:01 (setting [1]), 0.874 nM; with HLA-A*68:01 (setting [1]), 0.0241 nM; with HLA-A*33:01 (setting [1]), 0.46 nM.
As for PVDTEFINK, the Kd in the assay with HLA-A*11:01 (setting [1]) is 89.5 nM; with HLA-A*31:01 (setting [1]), 12700 nM; with HLA-A*03:01 (setting [1]) it was 19900 nM; with HLA-A*68:01 (setting [1]) it was 3570 nM; with HLA-A*33:01 (setting [1]) it was no less than 41800 nM.
For the sequence MLPESDLDK, the Kd is 2080 nM in the assay with HLA-A*11:01 (setting [1]); no less than 36200 nM with HLA-A*31:01 (setting [1]); 5640 nM with HLA-A*03:01 (setting [1]); 1240 nM with HLA-A*68:01 (setting [1]); no less than 73200 nM with HLA-A*33:01 (setting [1]).
Consider LSAGVEFLK, for which the Kd with HLA-A*11:01 (setting [2]) worked out at 0.171 nM; with HLA-A*31:01 (setting [2]), 776 nM; with HLA-A*03:01 (setting [2]) it was 9.41 nM; with HLA-A*68:01 (setting [2]) it was 0.244 nM; with HLA-A*33:01 (setting [2]) it was 8180 nM.
With LIPVSEVLLK, the Kd was 609 nM with HLA-A*11:01 (setting [1]); no less than 70000 nM with HLA-A*31:01 (setting [1]); 5230 nM with HLA-A*03:01 (setting [1]); 1210 nM with HLA-A*68:01 (setting [1]); no less than 70000 nM with HLA-A*33:01 (setting [1]).
